From patent US20230192857A1

Columns and labels:
[1] = molecular target: JAK1 kinase domain (JH1) (Homo sapiens) (UniProt P23458); test: cell-based or functional assay
[2] = molecular target: JAK1-Y1034 phosphopeptide with an alanine substitution at the +3 position (UniProt P23458); test: ITC
[3] = molecular target: phosphopeptide corresponding to Tyr1034 within the JAK1 kinase domain activation loop (UniProt P23458); test: ITC

Substance: hCIS-SH2-BC complex (recombinant trimeric complex of human GST-CIS-SH2 construct with Elongins B and C) (from UniProt Q9NSE2 66-258; Q15370 1-118; Q15369 17-112)
- efficiency of JAK1 JH1 kinase inhibition relative to SOCS1 [1]: 100 fold lower
- fold selectivity of kinase inhibition, JAK1 against JAK2, JAK3 or TYK2 (JH1 domains) [1]: > 20 fold

Substance: human CIS lacking both the N-terminal region and the PEST motif (ΔNT/ΔPEST), trimeric complex with elongins B and C (from UniProt Q9NSE2 67-258; Q15370 1-118; Q15369 17-112)
- fold reduction of binding against the wild-type JAK1-Y1034 phosphopeptide [2]: 4 fold

Substance: human CIS lacking the N-terminal 34 residues (ΔN34), trimeric complex with elongins B and C (from UniProt Q9NSE2 35-258; Q15370 1-118; Q15369 17-112)
- Kd [3]: 2.2 to 10 µM
